Data: US20170274068A1, “IMMUNOLOGICAL REAGENT” (priority 2014, published 2017)

Columns and labels:
[1] = Optical density of antigen and lipopeptide formulations (450 nm); assay type: physicochemical; settings: constant OVA (25 μg) plus increasing lipopeptide, up to 3-fold molar excess, PBS
Protocol: Optical density of antigen and lipopeptide formulations. A constant amount (0.55 nmol; 25 μg) of OVA was mixed with each lipopeptide at different protein:lipopeptide molar ratios in 50 μl of PBS in a 96-well plate at room temperature. The optical density of these solutions was then measured on a plate reader at a wavelength of 450 nm.

CD8+CD45.1+ OT-I cells = test: In vivo proliferative T cell responses, adoptive transfer of CFSE labelled OT-I cells; set-up: species or system C57BL/6 mice; settings: 3 μg OVA alone or with 3-fold molar excess lipopeptide, s.c., inguinal LNs day 3
From the text: In vivo proliferative T cell responses. […] Inguinal LNs were obtained 3 days after vaccination and CFSE intensities of CD8^+CD45.1^+ cells measured by flow cytometry.
To characterise early events associated with vaccine-mediated induction of CD8^+ T cell responses, the present inventors utilised the adoptive transfer of CD8^+ T cells from OTI transgenic mice that express the Vα2 TCR specific for OVA257. […] Analysis of OTI T cells in the draining lymph nodes of vaccinated animals was then carried out 3 days later and the loss of CFSE in these cells was used as an indicator of T cell proliferation.

[2] = Dynamic light scattering analysis of vaccine formulations; assay type: physicochemical
Protocol: FIG. 3. Particle size distribution of antigen and lipopeptide formulations. OVA (25 μg) was mixed with each lipopeptide at a 1:3 molar ratio of protein to lipopeptide in […] of PBS in a 96-well plate at room temperature. The size distribution of particulates in samples were then analysed by dynamic light scattering with each profile depicting the hydrodynamic radius (nm) of particles detected versus the percentage intensity of scattered light (% intensity).
To determine the size of complexes formed between OVA and each lipopeptide, we analysed these formulations by dynamic light scattering.

## CCCCCCCCCCCCCCCC(=O)OCC(CSCC(N)C(=O)N[C@@H](CO)C(=O)N[C@@H](CO)C(=O)NCCCC[C@H](NC(=O)[C@H](CCCCNC(=O)[C@H](CCCCNC(=O)[C@@H](N)CCCNC(=N)N)NC(=O)[C@@H](N)CCCNC(=N)N)NC(=O)[C@H](CCCCNC(=O)[C@@H](N)CCCNC(=N)N)NC(=O)[C@@H](N)CCCNC(=N)N)C(N)=O)OC(=O)CCCCCCCCCCCCCCC (some centres unmarked) [R4Pam2Cys]
[1]
  optical density (OD) of solutions, solubility: increase in OD

## OVA: protein antigen OVA used as model antigen, alone
CD8+CD45.1+ OT-I cells
  division of T cells (percentage of OT-I cells which proliferated): ~37%

B1: OVA: protein antigen OVA used as model antigen, alone (protein, UniProt P01012 2-386, looked up)
Ovalbumin: GSIGAASMEFCFDVFKELKVHHANENIFYCPIAIMSALAMVYLGAKDSTRTQINKVVRFDKLPGFGDSIEAQCGTSVNVHSSLRDILNQITKPNDVYSFSLASRLYAEERYPILPEYLQCVKELYRGGLEPINFQTAADQARELINSWVESQTNGIIRNVLQPSSVDSQTAMVLVNAIVFKGLWEKAFKDEDTQAMPFRVTEQESKPVQMMYQIGLFRVASMASEKMKILELPFASGTMSMLVLLPDEVSGLEQLESIINFEKLTEWTSSNVMEERKIKVYLPRMKMEEKYNLTSVLMAMGITDVFSSSANLSGISSAESLKISQAVHAAHAEINEAGREVVGSAEAGVDAASVSEEFRADHPFLFCIKHIATNAVLFFGRCVSP
[2]; DLS at 25° C in PBS, mixtures: OVA 25 μg, 1:3 molar ratio protein to lipopeptide
  Hydrodynamic diameter (nm): 199.5 ± 42.6 nm
[2]; DLS at 25° C, <20% is considered monodispersed
  % Pd (polydispersity): 27.1 ± 11.5%
[2]; OVA or lipopeptide alone
  particle size of sample alone: 157-242 nm
